# The Human Domainome abundance scans (Beltran et al. 2025)
# ± gives the uncertainty stated by the source.
# B1: Chromodomain-helicase-DNA-binding protein 5, residues 411 to 463; numbered along this chain, Q8TDI0 (parent)
# chain: EEDDHMEFCRVCKDGGELLCCDACPSSYHLHCLNPPLPEIPNGEWLCPRCTCP
# Variants of: B1
# Test: abundance fitness (aPCA) (normalised: wild type 0, dead -1); higher = more abundant; growth selection in yeast, the domain comes from the species named
# Settings: Homo sapiens
row,Variant,abundance fitness
1,C47Y,-0.929 ± 0.11
2,H5K,0.023 ± 0.042
3,H5S,-0.197 ± 0.047
4,H5A,-0.26 ± 0.042
5,H5G,-0.246 ± 0.043
6,H5R,-0.089 ± 0.041
7,H5M,-0.223 ± 0.043
8,H5L,-0.223 ± 0.041
9,H5T,-0.065 ± 0.038
10,M6E,-0.14 ± 0.088
11,M6G,-0.09 ± 0.066
12,M6Y,-0.401 ± 0.099
13,M6P,-0.03 ± 0.09
14,M6N,0.135 ± 0.094
15,M6H,-0.279 ± 0.19
16,M6V,-0.077 ± 0.071
17,L30M,0.137 ± 0.062
18,L30F,-0.06 ± 0.044
19,L30P,0.087 ± 0.057
20,L30W,-0.201 ± 0.049
21,L30S,0.02 ± 0.055
22,L30A,0.072 ± 0.061
23,E39H,0.098 ± 0.17
24,E39T,-0.209 ± 0.14

row,Variant,abundance fitness
1,E39W,-0.617 ± 0.24
2,E39V,0.025 ± 0.068
3,E39L,-0.418 ± 0.13
4,E39Y,-0.329 ± 0.37
5,K13I,-0.644 ± 0.22
6,K13L,-0.206 ± 0.047
7,K13S,-0.309 ± 0.06
8,K13D,0.01 ± 0.051
9,K13C,0.021 ± 0.098
10,K13F,-0.546 ± 0.1
11,K13E,0.142 ± 0.078
12,D22V,-0.085 ± 0.046
13,D22K,0.108 ± 0.052
14,D22F,-0.139 ± 0.066
15,D22R,0.071 ± 0.044
16,D22M,0.051 ± 0.066
17,G15E,-0.224 ± 0.13
18,G15M,-0.165 ± 0.12
19,G15C,-0.517 ± 0.12
20,G15N,-0.359 ± 0.12
21,G15H,-0.159 ± 0.11
22,L33G,-0.554 ± 0.058
23,L33Q,-0.484 ± 0.086
24,L33I,0.252 ± 0.082

row,Variant,abundance fitness
1,L33Y,-0.482 ± 0.12
2,L33E,-0.452 ± 0.074
3,L33S,-0.487 ± 0.061
4,L33C,-0.125 ± 0.084
5,L33H,-0.706 ± 0.21
6,L33P,-0.496 ± 0.11
7,G43H,-0.148 ± 0.1
8,G43I,-0.392 ± 0.14
9,G43K,-0.037 ± 0.12
10,G43R,-0.074 ± 0.08
11,G43T,-0.142 ± 0.09
12,G43V,0.004 ± 0.066
13,G43L,-0.152 ± 0.068
14,G43C,-0.112 ± 0.087
15,D14I,-0.519 ± 0.15
16,D14K,-0.133 ± 0.1
17,D14V,-0.157 ± 0.12
18,L46K,0.079 ± 0.089
19,L46W,-0.155 ± 0.083
20,L46V,-0.017 ± 0.054
21,L46E,-0.025 ± 0.054
22,L46I,0.116 ± 0.093
23,L46P,-0.559 ± 0.12
24,L46C,0.088 ± 0.096

row,Variant,abundance fitness
1,L46M,-0.188 ± 0.082
2,L46Y,-0.115 ± 0.093
3,R10Q,-0.106 ± 0.11
4,R10W,-0.212 ± 0.086
5,R10K,-0.218 ± 0.12
6,R10G,-0.035 ± 0.053
7,R10D,-0.119 ± 0.053
8,N42W,-0.142 ± 0.092
9,N42H,-0.054 ± 0.1
10,N42I,-0.346 ± 0.19
11,N42A,0.011 ± 0.068
12,N42Q,-0.211 ± 0.15
13,N42F,-0.266 ± 0.083
14,N42K,-0.144 ± 0.093
15,N42G,0.12 ± 0.06
16,N42S,0.058 ± 0.053
17,N42C,0.033 ± 0.1
18,N42Y,0.059 ± 0.12
19,P25F,-0.094 ± 0.087
20,P25Q,-0.118 ± 0.089
21,P25Y,0.023 ± 0.071
22,P25W,-0.067 ± 0.072
23,P25I,-0.04 ± 0.1
24,P25T,0.044 ± 0.065

row,Variant,abundance fitness
1,P25M,-0.11 ± 0.077
2,P38A,0.358 ± 0.22
3,P38T,-0.198 ± 0.31
4,P38L,0.263 ± 0.15
5,L19S,-0.537 ± 0.15
6,L19Q,-0.155 ± 0.12
7,L19E,-0.346 ± 0.12
8,L37G,-0.232 ± 0.063
9,L37K,-0.201 ± 0.1
10,L37W,-0.109 ± 0.049
11,L37Y,-0.109 ± 0.07
12,C20L,0.006 ± 0.047
13,C20D,0.217 ± 0.08
14,C20F,-0.05 ± 0.08
15,C20Y,0.125 ± 0.092
16,C24R,-0.392 ± 0.085
17,C24N,-0.904 ± 0.43
18,C24M,-0.781 ± 0.1
19,C24Y,-0.606 ± 0.14
20,C24E,-0.564 ± 0.11
21,C24T,-0.464 ± 0.12
22,C24D,-0.703 ± 0.16
23,C52Y,-0.295 ± 0.092
24,C52S,0.138 ± 0.061

row,Variant,abundance fitness
1,C52H,0.189 ± 0.1
2,C52G,0.029 ± 0.055
3,C52N,0.222 ± 0.11
4,C52V,0.062 ± 0.055
5,C52R,-0.026 ± 0.045
6,C52M,0.021 ± 0.053
7,C52I,-0.239 ± 0.099
8,C52K,-0.198 ± 0.14
9,P41G,0.064 ± 0.078
10,P41Q,-0.051 ± 0.11
11,P41N,0.168 ± 0.15
12,P41D,0.246 ± 0.12
13,P36S,-0.023 ± 0.066
14,P36C,-0.084 ± 0.088
15,P36Y,-0.838 ± 0.22
16,P36H,-0.211 ± 0.15
17,P36I,0.125 ± 0.12
18,D3T,0.205 ± 0.05
19,D3R,0.14 ± 0.04
20,D3Y,0.189 ± 0.065
21,D3A,0.028 ± 0.06
22,D3S,0.155 ± 0.044
23,E1N,0.264 ± 0.15
24,E1I,0.425 ± 0.27

row,Variant,abundance fitness
1,E1K,0.044 ± 0.13
2,E1A,-0.518 ± 0.1
3,E1G,-0.304 ± 0.044
4,V11H,0.033 ± 0.054
5,V11N,-0.131 ± 0.15
6,V11F,-0.111 ± 0.1
7,V11A,-0.276 ± 0.058
8,V11I,0.069 ± 0.061
9,V11K,0.122 ± 0.09
10,V11S,-0.118 ± 0.058
11,D4H,0.17 ± 0.044
12,D4I,0.184 ± 0.063
13,D4M,0.156 ± 0.043
14,D4F,0.263 ± 0.047
15,D4A,-0.186 ± 0.041
16,D4C,0.203 ± 0.066
17,C9I,-1.05 ± 0.25
18,C9T,-0.56 ± 0.074
19,C9N,-0.735 ± 0.13
20,C9Q,-0.771 ± 0.087
21,C9G,-0.687 ± 0.068
22,C9S,-0.807 ± 0.072
23,C9R,-0.629 ± 0.062
